Assay results: US20210138031A1 (TRUSTEES OF TUFTS COLLEGE, published 2021)

B1: Soluble Active Complement Terminator (SACT) (other)
chain: GCEEPPTFEAMELIGKPKPYYEIGERVDYKCKKGYFYIPPLATHTICDRNHTWLPVSDDACYRETCPYIRDPLNGQAVPANGTYEFGYQMHFICNEGYYLIGEEILYCELKGSVAIWSGKPPICEKVLCTPPPKIKNGKHTFSEVEVFEYLDAVTYSCDPAPGPDPFSLIGESTIYCGDNSVWSRAAPECKVVKCRFPVVENGKQISGFGKKFYYKATVMFECDKGFYLDGSDTIVCDSNSTWDPPVPKCLKVGGGGGGDCGLPPDVPNAQPALEGRTSFPEDTVITYKCEESFVKIPGEKDSVICLKGSQWSDIEEFCNRSCEVPTRLNSASLKQPYITQNYFPVGTVVEYECRPGYRREPSLSPKLTCLQNLKWSTAVEFCKKKSCPNPGEIRNGQIDVPGGILFGATISFSCNTGYKLFGSTSSFCLISGSSVQWSDPLPECREIYCPAPPQIDNGIIQGERDHYGYRQSVTYACNKGFTMIGEHSIYCTVNNDEGEWSGPPPECRGKSLTSKVPPTVQKPTTVNVPTTEVSPTSQKTTTKTTTPNAQATRSTPVSRTTKHFHETTPNKGSGTTSGTTGGGGGLQCYNCPNPTADCKTAVNCSSDFDACLITKAGLQVYNKCWKFEHCNFNDVTTRLRENELTYYCCKKDLCNFNEQLE
modifications: N- and O-linked glycosylation (about 110 kDa band observed)
B2: soluble terminator of activated complement (STAC) (other)
chain: LQCYNCPNPTADCKTAVNCSSDFDACLITKAGLQVYNKCWKFEHCNFNDVTTRLRENELTYYCCKKDLCNFNEQLEGGGGGCEEPPTFEAMELIGKPKPYYEIGERVDYKCKKGYFYIPPLATHTICDRNHTWLPVSDDACYRETCPYIRDPLNGQAVPANGTYEFGYQMHFICNEGYYLIGEEILYCELKGSVAIWSGKPPICEKVLCTPPPKIKNGKHTFSEVEVFEYLDAVTYSCDPAPGPDPFSLIGESTIYCGDNSVWSRAAPECKVVKCRFPVVENGKQISGFGKKFYYKATVMFECDKGFYLDGSDTIVCDSNSTWDPPVPKCLKVGGGGGGDCGLPPDVPNAQPALEGRTSFPEDTVITYKCEESFVKIPGEKDSVICLKGSQWSDIEEFCNRSCEVPTRLNSASLKQPYITQNYFPVGTVVEYECRPGYRREPSLSPKLTCLQNLKWSTAVEFCKKKSCPNPGEIRNGQIDVPGGILFGATISFSCNTGYKLFGSTSSFCLISGSSVQWSDPLPECREIYCPAPPQIDNGIIQGERDHYGYRQSVTYACNKGFTMIGEHSIYCTVNNDEGEWSGPPPECRGKSLTSKVPPTVQKPTTVNVPTTEVSPTSQKTTTKTTTPNAQATRSTPVSRTTKHFHETTPNKGSGTTSGTT
B3: Dual Terminator of Active Complement (DTAC) (other)
chain: GGDCGLPPDVPNAQPALEGRTSFPEDTVITYKCEESFVKIPGEKDSVICLKGSQWSDIEEFCNRSCEVPTRLNSASLKQPYITQNYFPVGTVVEYECRPGYRREPSLSPKLTCLQNLKWSTAVEFCKKKSCPNPGEIRNGQIDVPGGILFGATISFSCNTGYKLFGSTSSFCLISGSSVQWSDPLPECREIYCPAPPQIDNGIIQGERDHYGYRQSVTYACNKGFTMIGEHSIYCTVNNDEGEWSGPPPECRGKSLTSKVPPTVQKPTTVNVPTTEVSPTSQKTTTKTTTPNAQATRSTPVSRTTKHFHETTPNKGSGTTSGTTGGGGGLQCYNCPNPTADCKTAVNCSSDFDACLITKAGLQVYNKCWKFEHCNFNDVTTRLRENELTYYCCKKDLCNFNEQLE
modifications: glycosylated (about 76 kDa band observed)

How the values were obtained:
C9 = C9 (UniProt P02748 22-559); test: cell-based or functional assay
C3b = C3b (human, UniProt P01024 749-1663; P01024 23-667); test: cell-based or functional assay
C3b, sequence (P01024 749-1663 limits assumed, chain 1 of 2): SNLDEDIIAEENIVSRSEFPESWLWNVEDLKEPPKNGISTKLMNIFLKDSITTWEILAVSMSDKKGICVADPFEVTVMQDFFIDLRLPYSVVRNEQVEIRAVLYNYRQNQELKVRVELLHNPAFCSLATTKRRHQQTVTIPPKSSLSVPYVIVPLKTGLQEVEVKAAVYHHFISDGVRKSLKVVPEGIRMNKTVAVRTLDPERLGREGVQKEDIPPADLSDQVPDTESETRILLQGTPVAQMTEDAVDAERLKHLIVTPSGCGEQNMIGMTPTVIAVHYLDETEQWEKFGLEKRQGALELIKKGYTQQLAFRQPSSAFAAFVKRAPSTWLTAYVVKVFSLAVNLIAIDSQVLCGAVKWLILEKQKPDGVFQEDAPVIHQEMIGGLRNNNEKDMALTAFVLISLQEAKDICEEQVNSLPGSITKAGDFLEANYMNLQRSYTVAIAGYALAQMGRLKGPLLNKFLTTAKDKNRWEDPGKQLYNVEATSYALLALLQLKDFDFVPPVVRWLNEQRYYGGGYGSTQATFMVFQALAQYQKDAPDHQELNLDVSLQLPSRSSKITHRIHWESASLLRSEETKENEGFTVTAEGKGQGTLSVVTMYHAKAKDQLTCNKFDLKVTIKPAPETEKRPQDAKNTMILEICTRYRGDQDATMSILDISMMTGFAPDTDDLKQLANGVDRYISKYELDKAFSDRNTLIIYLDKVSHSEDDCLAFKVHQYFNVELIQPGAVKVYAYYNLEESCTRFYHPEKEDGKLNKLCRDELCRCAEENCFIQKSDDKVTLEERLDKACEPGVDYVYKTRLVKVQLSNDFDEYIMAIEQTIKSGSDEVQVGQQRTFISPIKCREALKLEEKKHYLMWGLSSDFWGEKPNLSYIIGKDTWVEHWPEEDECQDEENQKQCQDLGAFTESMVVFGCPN
C3b, sequence (P01024 23-667 limits assumed, chain 2 of 2): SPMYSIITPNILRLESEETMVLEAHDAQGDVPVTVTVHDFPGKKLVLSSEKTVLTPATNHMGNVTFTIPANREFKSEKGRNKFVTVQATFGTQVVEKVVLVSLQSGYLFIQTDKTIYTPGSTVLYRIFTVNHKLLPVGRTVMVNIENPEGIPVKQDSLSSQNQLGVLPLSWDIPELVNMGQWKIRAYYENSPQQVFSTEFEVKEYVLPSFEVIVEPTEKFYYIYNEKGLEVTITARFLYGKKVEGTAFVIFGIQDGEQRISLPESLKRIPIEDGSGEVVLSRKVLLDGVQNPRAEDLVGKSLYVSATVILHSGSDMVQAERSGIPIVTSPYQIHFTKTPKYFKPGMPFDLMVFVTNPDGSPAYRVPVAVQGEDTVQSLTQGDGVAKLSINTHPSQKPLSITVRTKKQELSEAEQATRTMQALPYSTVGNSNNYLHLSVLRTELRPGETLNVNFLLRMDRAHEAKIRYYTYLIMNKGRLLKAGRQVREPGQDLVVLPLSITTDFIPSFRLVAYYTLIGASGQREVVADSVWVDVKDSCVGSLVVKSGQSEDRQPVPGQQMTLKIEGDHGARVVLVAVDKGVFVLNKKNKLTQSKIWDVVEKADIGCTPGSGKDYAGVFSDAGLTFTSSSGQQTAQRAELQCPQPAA

C9, sequence (P02748 22-559 limits assumed): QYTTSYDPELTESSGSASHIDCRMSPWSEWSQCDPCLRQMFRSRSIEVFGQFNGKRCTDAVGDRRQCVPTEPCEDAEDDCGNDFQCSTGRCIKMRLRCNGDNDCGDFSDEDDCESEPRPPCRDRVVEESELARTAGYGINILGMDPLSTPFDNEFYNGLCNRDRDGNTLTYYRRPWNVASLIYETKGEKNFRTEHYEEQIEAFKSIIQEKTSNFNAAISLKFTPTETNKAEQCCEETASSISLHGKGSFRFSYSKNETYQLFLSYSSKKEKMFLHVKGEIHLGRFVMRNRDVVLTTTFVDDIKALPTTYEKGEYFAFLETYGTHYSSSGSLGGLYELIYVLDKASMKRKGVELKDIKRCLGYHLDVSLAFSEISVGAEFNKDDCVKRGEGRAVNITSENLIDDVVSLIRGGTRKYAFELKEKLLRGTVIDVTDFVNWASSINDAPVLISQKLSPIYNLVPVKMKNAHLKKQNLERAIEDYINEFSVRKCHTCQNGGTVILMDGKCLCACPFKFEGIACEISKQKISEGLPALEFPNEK

Molecule	reduction of release of hemoglobin from sheep erythrocytes carrying C5b-8 after addition of C9, relative to media from pGFP-transfected cells (C9)	further results
sCD59 (soluble CD59, positive control) (from UniProt P13987 26-102)	–	reduction in lysis of sheep erythrocytes carrying C5b-8 after addition of C9, compared to GFP media containing C9 (C9): 21%
B1	29.9%	–
B2	–	reduction in C3b α′ chain signal intensity in the presence of Factor I, relative to media from pGFP transfected cells (quantitative western blot) (C3b): 34.3%
B3	34.8%	–
